Square brackets hold non-standard residues; d marks the D form. Ends that are not written are not given here. αMeE = C[C@](N)(CCC(=O)O)C(=O)O
B1: glucagon derivative of SEQ ID NO: 12 (peptide)
peptide: H[αMeE]QGTFTSDYSKYLCEKRAKEFVQWLMNT
modifications: not fully specified
B2: glucagon derivative of SEQ ID NO: 13 (peptide)
peptide: H[αMeE]QGTFTSDYSKYLDECRAKEFVQWLMNT
modifications: not fully specified
B3: glucagon derivative of SEQ ID NO: 14 (peptide)
peptide: H[αMeE]QGTFTSDYSKYLDEKCAKEFVQWLMNT
modifications: not fully specified

What follows are binders tested against human GLP-1 receptor (human, UniProt P43220 24-463) (assay: cell-based or functional assay).

EC50 (nM), cAMP concentration in CHO cells expressing hGLP-IR | Binder
0.96 nM | B1
0.27 nM | B2
0.17 nM | B3

What follows are binders tested against human glucagon receptor (human, UniProt P47871 26-477) (assay: cell-based or functional assay).
Sequence of human glucagon receptor (P47871 26-477): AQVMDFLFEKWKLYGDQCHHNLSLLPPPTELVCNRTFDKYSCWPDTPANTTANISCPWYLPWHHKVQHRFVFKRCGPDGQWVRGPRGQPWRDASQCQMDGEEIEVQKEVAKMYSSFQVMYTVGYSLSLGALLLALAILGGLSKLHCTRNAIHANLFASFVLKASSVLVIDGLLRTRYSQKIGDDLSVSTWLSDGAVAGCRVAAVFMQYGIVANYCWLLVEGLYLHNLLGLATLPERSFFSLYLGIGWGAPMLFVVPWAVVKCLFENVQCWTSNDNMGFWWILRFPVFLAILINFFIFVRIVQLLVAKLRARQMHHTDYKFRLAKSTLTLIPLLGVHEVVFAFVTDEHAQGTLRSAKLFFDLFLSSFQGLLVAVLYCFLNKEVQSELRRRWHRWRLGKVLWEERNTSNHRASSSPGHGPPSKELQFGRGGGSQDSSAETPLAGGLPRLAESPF

EC50 (nM), cAMP concentration in CHO cells expressing hGCGR | Binder
1.38 nM | B1
0.23 nM | B2
0.38 nM | B3
